Target: Mycobacterium tuberculosis Bacterioferritin B (BfrB), full length (Mycobacterium tuberculosis H37Rv) (UniProt P9WNE5)
Test: crystal structure; recombinant BfrB, 11 mg/ml, 20% PEG 3350, 0.1 M Tris pH 8.5, 293 K; 3.0 Å; 24 subunits in the asymmetric unit

Mycobacterium tuberculosis Bacterioferritin B (BfrB), full length (from UniProt P9WNE5 1-181) (natural protein)
stoichiometry N: 24
